# Test results reported in patent US11130803B2, “Isoform-selective TGFβ1 inhibitors and use thereof” (Scholar Rock, Inc., priority 2018, dated 2021).
# Positions count from the first letter of the chain named. Read-outs that look alike come from different tables or passages of the source.
# B1: Ab31: monoclonal antibody; VH SEQ ID NO: 139, VL SEQ ID NO: 15 (antibody, V domains shown)
# VH: EVQLVESGGGLVQPGGSLRLSCAASGFTFSSFSMDWVRQAPGKGLEWVSYISPDASTIYYADSVKGRFTISRDNAKNTLYLQMNSLRAEDTAVYYCARAVLDYGDMLDPWGQGTLVTVSS
# VL: DIQMTQSPSSLSASVGDRVTITCQASQDITNYLNWYQQKPGKAPKLLIYDASNLETGVPSRFSGSGSGTDFTFTISSLQPEDIATYYCQQADNHPPWTFGGGTKVEIK
# B2: Ab24: monoclonal antibody; VH SEQ ID NO: 132, VL SEQ ID NO: 15 (antibody, V domains shown)
# VH: B1 VH with G16R, S33A, D35Y, T78S, A99G
# VL: B1 VL
# B3: Ab30: monoclonal antibody; VH SEQ ID NO: 138, VL SEQ ID NO: 15 (antibody, V domains shown)
# VH: B1 VH with T78S, A99G, V100T
# VL: B1 VL
# B4: Ab26: monoclonal antibody; VH SEQ ID NO: 134, VL SEQ ID NO: 15 (antibody, V domains shown)
# VH: B1 VH with A99G
# VL: B1 VL
# B5: Ab32: monoclonal antibody; VH SEQ ID NO: 140, VL SEQ ID NO: 15 (antibody, V domains shown)
# VH: B1 VH with D35N, D54S, S56D, A99G, L101W, Y103M
# VL: B1 VL
# Assays:
# [1] = test system: matrix-associated (LTBP1/LTBP3) and cell-associated (GARP/LRRC33) proTGFβ1 complexes; assay: Octet: average KD and fold bias, matrix- vs cell-associated complexes; assay type: binding, human; details: for Kd: average KD of (E) and (F), cell-associated complexes, read-out: (G) Cell AVRG; for (H) G/D (fold bias): ratio of average KD cell-associated / matrix-associated
# Description: Column (A) of the table lists monoclonal antibodies with discrete amino acid sequences. […] Columns (B), (D), (E) and (F) provide affinities of each of the listed antibodies, measured in KD. […] Average KD values of (B) and (C) are shown in the corresponding column (D), which collectively represents affinities of the antibodies to ECM- or matrix-associated proTGFβ1 complexes. Similarly, Average KD values of (E) and (F) are shown in the corresponding column (G), which collectively represents affinities of the antibodies to cell-surface or cell-associated proTGFβ1 complexes. Finally, relative ratios between the average KD values from columns (D) and (G) are expressed as “fold bias” in column (H). […] This is one way of quantitatively representing and comparing inherent bias of antibodies to their target complexes.
# Average KD values between the two matrix-associated and cell-associated complexes are calculated, respectively (see columns (D) and (G)). These average KD values can then be used to ask whether bias in binding activities exists between complexes associated with matrix vs. complexes associated with cell surface (e.g., immune cells). Bias may be expressed as “fold-difference” in the average KD values, as illustrated in Table 8.
# [2] = test system: hLTBP1-/hLTBP3-proTGFβ1 vs hGARP-/hLRRC33-proTGFβ1 complexes; assay: Solution equilibrium titration: relative affinity (bias) LTBP complexes vs cell-associated complexes; assay type: binding, human; details: MSD-SET; for (H) G/D (fold bias): ratio of average KD cell-associated / matrix-associated
# Description: Context-biased: As used herein, “context-biased antibodies” refer to a type of conformational antibodies that binds an antigen with differential affinities when the antigen is associated with (i.e., bound to or attached to) an interacting protein or a fragment thereof. Thus, a context-biased antibody that specifically binds an epitope within proTGFβ1 may bind LTBP1-proTGFβ1, LTBP3-proTGFβ1, GARP-proTGFβ1 and LRRC33-proTGFβ1 with different affinities. […] Relative affinities of [matrix-associated complexes]: [cell-associated complexes] may be obtained by taking average KD values of the former, taking average KD values of the latter, and calculating the ratio of the two, as exemplified herein.
# In a yet further aspect, the present disclosure provides context-biased TGFβ1 inhibitors. The context-biased antibodies include LTBP-biased antibodies with higher affinities for ECM-associated LLCs than for cell-associated LLCs wherein the affinities are measured at equilibrium.
# [3] = molecular target: T1, hLRRC33-proTGFβ1 (Homo sapiens, UniProt P01137); assay: MSD-SET solution equilibrium titration binding; details: MSD-SET at equilibrium, hIgG4, human complex; in M
# T1 construct: made in house
# Description: (§1) Solution Equilibrium Titration (SET): The SET is an assay whereby binding between two molecules (such as an antigen and an antibody that binds the antigen) can be measured at equilibrium in a solution. For example, Meso-Scale Discovery (“MSD”)-based SET, or MSD-SET, is a useful mode of determining dissociation constants for particularly high-affinity protein-protein interactions at equilibrium, such as picomolar-affinity antibodies binding to their antigens (see, for example: Ducata et al. (2015) J Biomolecular Screening 20(10): 1256-1267). The SET-based assays are particularly useful for determining KD values of antibodies with sub-nanomolar (e.g., picomolar) affinities.
# (§2) In view of this, it is contemplated that assays that measure binding affinities of such antibodies at equilibrium may more accurately represent the mode of target engagement in vivo. Thus, MSD-SET-based binding assays (or other suitable assays) may be performed, as exemplified in Table 9 below.
# (§3) Solution equilibrium titration (“SET”) is an assay whereby binding between two molecules (such as an antigen and an antibody that binds the antigen) can be measured at equilibrium in a solution. For example, Meso-Scale Discovery (“MSD”)-based SET, or MSD-SET, is a useful mode of determining dissociation constants for particularly high-affinity protein-protein interactions at equilibrium (see, for example: Ducata et al. (2015) J Biomolecular Screening 20(10): 1256-1267). The SET-based assays are particularly useful for determining KD values of antibodies with sub-nanomolar (e.g., picomolar) affinities.
# (§4) For solution equilibrium titration-based binding assays, protein complexes that comprise one of the presenting molecules such as those shown above may be employed as antigen (presenting molecule-TGFβ1 complex, or an LLC). Test antibodies are allowed to form antigen-antibody complex in solution. Antigen-antibody reaction mixtures are incubated to allow an equilibrium to be reached; the amount of the antigen-antibody complex present in the assay reactions can be measured by suitable means well known in the art. As compared to BLI-based assays, SET-based assays are less affected by on/off rates of the antigen-antibody complex, allowing sensitive detection of very high affinity interactions.
# [4] = molecular target: T2, hGARP-proTGFβ1 (Homo sapiens, UniProt P01137); assay: MSD-SET solution equilibrium titration binding; details: MSD-SET at equilibrium, hIgG4, human complex; in M
# T2 construct: made in house
# Description: as §1, §2, §3, §4
# [5] = molecular target: T3, hLTBP3-proTGFβ1 (Homo sapiens, UniProt P01137); assay: MSD-SET solution equilibrium titration binding; details: MSD-SET at equilibrium, hIgG4, human complex; in M
# T3 construct: made in house; host or cells: Expi293F cells, transient co-transfection
# Description: as §1, §2, §3, §4
# [6] = molecular target: T4, hLTBP1-proTGFβ1 (Homo sapiens, UniProt P01137); assay: MSD-SET solution equilibrium titration binding; details: MSD-SET at equilibrium, hIgG4, human complex; in M
# T4 construct: made in house; host or cells: Expi293F cells, transient co-transfection
# Description: as §1, §2, §3, §4
# [7] = test system: matrix-associated (LTBP1/LTBP3) and cell-associated (GARP/LRRC33) proTGFβ1 complexes; assay: Octet: average KD and fold bias, matrix- vs cell-associated complexes; assay type: binding, human; details: average KD of (B) and (C), read-out: (D) ECM AVRG
# [8] = average KD of (B) and (C), read-out: (D) ECM AVRG
# [9] = average KD of (E) and (F), read-out: (G) Cell AVRG
# T4 sequence (P01137 30-390): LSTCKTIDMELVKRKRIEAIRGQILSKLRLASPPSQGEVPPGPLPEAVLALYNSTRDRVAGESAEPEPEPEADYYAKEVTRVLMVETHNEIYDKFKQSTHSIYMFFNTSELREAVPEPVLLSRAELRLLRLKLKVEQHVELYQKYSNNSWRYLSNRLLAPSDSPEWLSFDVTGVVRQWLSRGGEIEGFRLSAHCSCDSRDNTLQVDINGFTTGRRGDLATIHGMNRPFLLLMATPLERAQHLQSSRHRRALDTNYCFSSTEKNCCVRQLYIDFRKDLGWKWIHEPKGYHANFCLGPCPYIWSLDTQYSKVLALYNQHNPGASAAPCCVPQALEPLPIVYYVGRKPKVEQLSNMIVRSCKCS
# T4 sequence (Q14766 873-1507 partner): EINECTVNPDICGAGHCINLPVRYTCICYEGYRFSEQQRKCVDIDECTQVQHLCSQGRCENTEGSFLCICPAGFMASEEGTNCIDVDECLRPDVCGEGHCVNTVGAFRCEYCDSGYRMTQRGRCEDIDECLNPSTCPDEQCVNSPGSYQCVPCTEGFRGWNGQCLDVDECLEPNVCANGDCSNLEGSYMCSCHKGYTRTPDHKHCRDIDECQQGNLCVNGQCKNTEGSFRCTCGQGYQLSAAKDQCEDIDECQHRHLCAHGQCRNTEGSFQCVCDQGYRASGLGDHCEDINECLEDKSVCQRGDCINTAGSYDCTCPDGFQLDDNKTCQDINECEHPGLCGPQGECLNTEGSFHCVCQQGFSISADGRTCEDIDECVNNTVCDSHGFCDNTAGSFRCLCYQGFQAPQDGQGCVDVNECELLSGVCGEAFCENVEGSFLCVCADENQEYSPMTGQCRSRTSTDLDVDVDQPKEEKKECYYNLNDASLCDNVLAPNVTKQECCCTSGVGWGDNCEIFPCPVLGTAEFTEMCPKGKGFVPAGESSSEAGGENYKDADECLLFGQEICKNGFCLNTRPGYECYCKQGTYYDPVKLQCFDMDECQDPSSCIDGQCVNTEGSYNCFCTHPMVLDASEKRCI
# T3 sequence (P01137 30-390): as the sequence (P01137 30-390) above
# T3 sequence (Q9NS15 866-1039 partner limits assumed): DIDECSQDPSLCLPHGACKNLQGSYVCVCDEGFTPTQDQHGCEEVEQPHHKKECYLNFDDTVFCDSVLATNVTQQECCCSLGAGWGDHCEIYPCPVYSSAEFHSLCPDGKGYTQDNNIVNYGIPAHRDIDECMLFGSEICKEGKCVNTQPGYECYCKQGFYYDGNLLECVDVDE
# T2 sequence (P01137 30-390): as the sequence (P01137 30-390) above
# T2 sequence (Q14392 20-627 partner limits assumed): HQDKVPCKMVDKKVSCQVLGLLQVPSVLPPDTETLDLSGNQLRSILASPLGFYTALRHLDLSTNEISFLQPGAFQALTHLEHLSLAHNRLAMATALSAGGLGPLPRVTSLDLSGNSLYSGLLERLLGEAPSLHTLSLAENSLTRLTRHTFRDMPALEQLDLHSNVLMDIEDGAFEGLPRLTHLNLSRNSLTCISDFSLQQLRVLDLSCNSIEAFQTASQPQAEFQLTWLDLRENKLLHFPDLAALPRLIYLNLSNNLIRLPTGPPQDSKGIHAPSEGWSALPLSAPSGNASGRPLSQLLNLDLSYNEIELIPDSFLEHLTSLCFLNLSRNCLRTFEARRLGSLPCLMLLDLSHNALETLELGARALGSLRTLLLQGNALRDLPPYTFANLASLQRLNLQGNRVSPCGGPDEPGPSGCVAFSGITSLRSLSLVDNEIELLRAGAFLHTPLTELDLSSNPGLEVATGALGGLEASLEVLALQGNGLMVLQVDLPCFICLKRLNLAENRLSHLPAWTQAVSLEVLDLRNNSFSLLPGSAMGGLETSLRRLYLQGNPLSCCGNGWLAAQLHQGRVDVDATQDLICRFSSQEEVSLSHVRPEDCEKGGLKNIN
# T1 sequence (P01137 30-390): as the sequence (P01137 30-390) above
# T1 sequence (Q86YC3 19-650 partner limits assumed): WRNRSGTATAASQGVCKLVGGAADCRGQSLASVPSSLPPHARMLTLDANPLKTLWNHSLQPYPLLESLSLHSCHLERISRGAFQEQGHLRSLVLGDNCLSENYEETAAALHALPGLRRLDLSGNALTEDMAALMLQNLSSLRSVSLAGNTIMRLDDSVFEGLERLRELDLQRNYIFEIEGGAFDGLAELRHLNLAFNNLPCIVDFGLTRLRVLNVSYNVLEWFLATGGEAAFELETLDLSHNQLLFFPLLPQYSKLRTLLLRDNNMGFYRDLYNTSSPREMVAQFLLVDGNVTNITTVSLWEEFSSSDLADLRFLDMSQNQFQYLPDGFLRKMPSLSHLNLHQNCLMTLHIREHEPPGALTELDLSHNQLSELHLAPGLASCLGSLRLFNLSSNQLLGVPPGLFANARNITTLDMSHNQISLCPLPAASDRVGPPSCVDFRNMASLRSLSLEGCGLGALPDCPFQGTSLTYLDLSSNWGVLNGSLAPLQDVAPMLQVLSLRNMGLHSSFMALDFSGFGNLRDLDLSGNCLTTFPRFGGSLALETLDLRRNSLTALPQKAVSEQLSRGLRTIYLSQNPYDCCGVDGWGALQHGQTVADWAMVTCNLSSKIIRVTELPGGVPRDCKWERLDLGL
Molecule,Kd [1],(H) G/D (fold bias) [1],"Kd [2, 8]","Kd [2, 9]",(H) G/D (fold bias) [2],"(F) hLRRC33, Cell-associated proTGFβ1 KD [3]","(E) hGARP, Cell-associated proTGFβ1 KD [4]","(C) hLTBP3, Matrix-associated proTGFβ1 KD [5]","(B) hLTBP1, Matrix-associated proTGFβ1 KD [6]",Kd [7]
B1,0.495 nM,2.376 fold,0.017 nM,0.058 nM,3.41 fold,9.60E−11,1.90E−11,1.40E−11,1.90E−11,0.208 nM
B2,0.537 nM,2.421 fold,0.023 nM,0.1 nM,4.35 fold,1.80E−10,1.90E−11,2.10E−11,2.40E−11,0.222 nM
B3,0.684 nM,2.307 fold,0.029 nM,0.081 nM,2.80 fold,1.40E−10,2.20E−11,2.60E−11,3.10E−11,0.296 nM
B4,0.492 nM,2.500 fold,0.026 nM,0.072 nM,2.77 fold,1.30E−10,1.40E−11,2.30E−11,2.80E−11,0.197 nM
B5,0.597 nM,2.467 fold,0.032 nM,0.051 nM,1.60 fold,8.70E−11,1.50E−11,2.60E−11,3.70E−11,0.242 nM
